Reference: the supplement of paper PMC9170038

Tested on: MS2 coat protein
Assay: apparent KD of MS2 coat protein; designed switch direction (-1 OFF switch, 1 ON switch): -1; higher = weaker reporter binding
Procedure, shortened: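 For each design, the apparent KD is the median over clusters of curves fitted to normalised cluster fluorescence. Clusters held RNA switches with common flanks, transcribed on Illumina chips by stalled E. coli RNA polymerase. These were titrated with SNAP-549-labelled MS2 coat protein, doubling from 0.7 or 1.5 nM to 3 µM, without input, with 200 uM small-molecule ligand, or with an oligonucleotide input.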

[1] = input ligand: microRNA oligo, concentration not stated
[2] = Eterna round: R95, input ligand: microRNA oligo, concentration not stated
[3] = Eterna round: R95, input ligand: FMN 200 uM
[4] = Eterna round: R95, input ligand: none

AACAUGAGGAUCACCCAUGUGAACCUCCUAAAAUACGACCGGUAGGAUAUACGAAAGAGCCGGAAGUAGAAGGACCGGUUAAAA [Esusale] (Eterna round: R96, puzzle: Exclusion NG 3)
apparent KD of MS2 coat protein (input ligand: FMN 200 uM): 460 nM | apparent KD of MS2 coat protein [1]: 96.1 nM | apparent KD of MS2 coat protein (input ligand: none): 158 nM

CUUUACAUGCUGAGAUCCUACAUGAGGAUCACCCAUGUGGUCCGGUGACGUGAGUCACCGGACUUAGCUCGUCUUGU [salish99_S_TOV1_R5_098] (Eterna round: R97, puzzle: Sensor, turn-off variant 1)
apparent KD of MS2 coat protein (input ligand: FMN 200 uM): 169 nM | apparent KD of MS2 coat protein (input ligand: none): 336 nM

GAGCUAUGAGGAUAUGCAUAUAUGCGGUUUCGUGUGGUACUACAUGAGGAUCACCCAUGUAGAAGGCGUGGCUG [JL-ex2-2.06 mat747 mod] (puzzle: Exclusion 2)
apparent KD of MS2 coat protein [2]: 14 nM

UUCUUUACACGAGGAUAUCAUACAUGAGGAUCACCCAUGUUACUUUGUCUGUUAUUAUGUAUUAUUGAGAAGGCGUUUUUCUUU [JR_ExcNG2_Sub077] (Eterna round: R96, puzzle: Exclusion NG 2)
apparent KD of MS2 coat protein [1]: 15.8 nM

GUAGAUCAGGCUUUCAUUGACAUGAGGAUCACCCAUGUUUUGAAAGGGUGAGAGAGGUGCUUCAUAUUCAGCUCUGA [JR_Sensorv2_tov_Sub1218] (Eterna round: R96, puzzle: Sensor v2, turn-off variant)
apparent KD of MS2 coat protein (input ligand: FMN 200 uM): 76.4 nM | apparent KD of MS2 coat protein [1]: 55.3 nM | apparent KD of MS2 coat protein (input ligand: none): 61.1 nM

CCAAGCUUAUUCAUUAACCACAUGAGGAUCACCCAUGUCUUGGCAAUUAUGACUUGCCCGUCAGGUGCUCGUCUUAU [Sensor-V1 #34] (Eterna round: R97, puzzle: Sensor, turn-off variant 1)
apparent KD of MS2 coat protein (input ligand: FMN 200 uM): 32.2 nM | apparent KD of MS2 coat protein (input ligand: none): 32.9 nM

UUGUUAUAUGUAGGAUAUGCGUGUUAUUGUUAGGCAGAAGGACAUGAGGAUCACCCAUGUAUGUUGUUGUUAUAUAUUAUAUAU [Title] (Eterna round: R96, puzzle: Exclusion NG 1)
apparent KD of MS2 coat protein (input ligand: FMN 200 uM): 41.9 nM | apparent KD of MS2 coat protein [1]: 21.2 nM | apparent KD of MS2 coat protein (input ligand: none): 34.4 nM

AUUCAUGCAGGAUAUACAUGAGGAUCACCCAUGUUAAUUUCUACAAGGCGGCAUCUAUGUAGAAGGGUAUGAAG [Eternabot (L2) Solution 33] (Eterna round: R97, puzzle: Exclusion 3)
apparent KD of MS2 coat protein (input ligand: FMN 200 uM): 35.5 nM | apparent KD of MS2 coat protein (input ligand: none): 24.6 nM

GAGUGACAUGAGGAUCACCCAUGUGAGGAUAUCGGACGGACCUUGUUGGCUUCCGCCGCGAGAAGGCACAUCGG [Exclusion 1 V26] (puzzle: Exclusion 1)
apparent KD of MS2 coat protein [2]: 87.5 nM

CCAGGAAGGCAGGAUAUCCAAAGCCGUCCCGGCGGAGAAGGGCUAACUUGAGGAUCACCCAAGUGAUGCCUAAC [Oreden] (Eterna round: R97, puzzle: Exclusion 6)
apparent KD of MS2 coat protein (input ligand: FMN 200 uM): 13 nM | apparent KD of MS2 coat protein (input ligand: none): 14.2 nM

AUAUAUAUAGGAUAUACAUGAGGAUCACCCAUGUAAAGUAGCUUGCGUACAGGCAGAUGUAGAAGGAUAUAUAU [Mod of JL 15 - Jieux - Exclusion 3] (Eterna round: R97, puzzle: Exclusion 3)
apparent KD of MS2 coat protein (input ligand: FMN 200 uM): 29.2 nM | apparent KD of MS2 coat protein (input ligand: none): 33.1 nM

AGAGAACAUGAGGAUCACCCAUGUAAGGAUAUGCGAAGAGUUCGGAGAGGUUGAGGAGGCAGAAGGUACAGGAG [JR_Exclu1_Sub042] (puzzle: Exclusion 1)
apparent KD of MS2 coat protein [3]: 30.5 nM | apparent KD of MS2 coat protein [2]: 31.4 nM | apparent KD of MS2 coat protein [4]: 33.1 nM

CUGAACAUAGGAUAUACAUGAGGAUCACCCAUGUAUAUAAAAGGGUGUUCCAACUAAAGUAGAAGGAUGUAUAG [ExFusion 4 - Jieux - Exclusion 3] (Eterna round: R97, puzzle: Exclusion 3)
apparent KD of MS2 coat protein (input ligand: FMN 200 uM): 45.1 nM | apparent KD of MS2 coat protein (input ligand: none): 57.8 nM

UCUUGUUGUCCGUGAGAAGACAUGAGGAUCACCCAUGUUAGUUUGAUUAUGAUGUGUAAGUUUGUUGUUCGUUUUAU [JR_STOV1_v2_Sub072] (Eterna round: R97, puzzle: Sensor, turn-off variant 1)
apparent KD of MS2 coat protein (input ligand: FMN 200 uM): 53.1 nM | apparent KD of MS2 coat protein (input ligand: none): 63.1 nM

AAGGACAGAGGAUAUACAUAGAUACAGAUUCAUGUAGAACUACAUGAGGAUCACCCAUGUAGAAGGCUGUCCUA [Fiskers Ex 2 - 2] (Eterna round: R96, puzzle: Exclusion 2)
apparent KD of MS2 coat protein (input ligand: FMN 200 uM): 412 nM | apparent KD of MS2 coat protein [1]: 25.3 nM | apparent KD of MS2 coat protein (input ligand: none): 31.7 nM

AAGGAAAAGUGAGGAUAUGGAAAUUUGGUGAUAACAUGAGGAUCACCCAUGUGAAAACAAUAAAAUUAGAAGGUAUAAAGAAAA [AK ExNG2-1.1] (Eterna round: R96, puzzle: Exclusion NG 2)
apparent KD of MS2 coat protein (input ligand: FMN 200 uM): 120 nM | apparent KD of MS2 coat protein [1]: 66.7 nM | apparent KD of MS2 coat protein (input ligand: none): 107 nM

AUGUGCACGCUGCGGUCCUACAUGAGGAUCACCCAUGUGGUCUGGUGGCGUGGGUCACCGGACUUGGCUCGUCUUGG [salish99_S_TOV1_R5_057] (Eterna round: R97, puzzle: Sensor, turn-off variant 1)
apparent KD of MS2 coat protein (input ligand: FMN 200 uM): 22.4 nM | apparent KD of MS2 coat protein (input ligand: none): 24.3 nM

CACUCACAUGAGGAUCACCCAUGUCAGGAUAUCUCAGUGCAUCCACACGGACGCAUCAAGAGAAGGGACAAAAC [Vinxlusion 1 - Jieux - Exclusion 1] (Eterna round: R97, puzzle: Exclusion 1)
apparent KD of MS2 coat protein (input ligand: FMN 200 uM): 40.2 nM | apparent KD of MS2 coat protein (input ligand: none): 36.6 nM

UUUUGAAAGUGAGGAUAUGACAUGAGGAUCACCCAUGUAAAGGGAGUUGAAUAUAUAGAAAGAUAUCAGAAGGCACAAAUGUUU [JR_ExcNG2_Sub001] (Eterna round: R96, puzzle: Exclusion NG 2)
apparent KD of MS2 coat protein [1]: 115 nM

AGAAAUGCCCAUGGCCGCAAGCUUUUUACUUGUCUUACCACAUGAGGAUCACCCAUGUGACAUGGAAACCUUAUGAU [Sensor v3, turn-off variant 2 (MOD of Oranla v.2)] (puzzle: Sensor v3, turn-off variant 2)
apparent KD of MS2 coat protein [3]: 30.3 nM | apparent KD of MS2 coat protein [2]: 97 nM | apparent KD of MS2 coat protein [4]: 28.1 nM

ACAUGAGGAUCACCCAUGUCGACGAAAAGGCUCAUGUAGAGUGAGGAUAUGUGAGACGAACGAGAACAGAAGGCACAAGACAGG [Deportation 4 - Jieux - Exclusion NG 3] (Eterna round: R96, puzzle: Exclusion NG 3)
apparent KD of MS2 coat protein (input ligand: FMN 200 uM): 85.8 nM | apparent KD of MS2 coat protein [1]: 58.9 nM | apparent KD of MS2 coat protein (input ligand: none): 52.3 nM

AUCAUGUUAGGAUAUACAAGAAAAGAAAAGAAAGAAAAGAAGUAGAAGGAACAUGAGGAUCACCCAUGUAAGAA [EteRNA is fun!] (Eterna round: R96, puzzle: Exclusion 4)
apparent KD of MS2 coat protein [1]: 23 nM

AUAGUGUUAGGAUAUGCUUAUGCUGGGUAGUCCAGUAUGGAGUAGAAGGGACAUGAGGAUCACCCAUGUGCUCA [EX4 #40] (Eterna round: R97, puzzle: Exclusion 4)
apparent KD of MS2 coat protein (input ligand: FMN 200 uM): 18.6 nM | apparent KD of MS2 coat protein (input ligand: none): 20.5 nM

CCUCGUUGGGAGGAUAUCCUUUAGAUUGGAGGAGGAGAAGGCUCGACAUGAGGAUCACCCAUGUGGGAUUUCCC [-24.6, -21.9 kcal, A 23%] (Eterna round: R97, puzzle: Exclusion 6)
apparent KD of MS2 coat protein (input ligand: FMN 200 uM): 127 nM | apparent KD of MS2 coat protein (input ligand: none): 35.6 nM

ACAUGAGGAUCACCCAUGUCUGGCUGGUCCGUCUCGGCUGUCGAGGAUAUGGCUCGGUGUCCGCGCUAGAAGGCGGGAGCUGGC [Aenatbe mod 80] (Eterna round: R96, puzzle: Exclusion NG 3)
apparent KD of MS2 coat protein (input ligand: FMN 200 uM): 75.2 nM | apparent KD of MS2 coat protein [1]: 46.2 nM | apparent KD of MS2 coat protein (input ligand: none): 89.3 nM

GCCACGGGAGGAUAUCGCGGAGGCUACAUGAGGAUCACCCAUGUCUGGUCUUCGUGCUCCCGAGAAGGCCCGUCAG [Bivemaus] (puzzle: Exclusion 5)
apparent KD of MS2 coat protein [2]: 13.2 nM

GAUUAUGCGAGCUUUAGGGACAUGAGGAUCACCCAUGUUCGUCUUAUUAGUCUGGGUGCACUAACAUACCUAAAUCU [JMF 37] (puzzle: Sensor v3, turn-off variant 1)
apparent KD of MS2 coat protein [3]: 135 nM | apparent KD of MS2 coat protein [2]: 81.4 nM | apparent KD of MS2 coat protein [4]: 153 nM

GAGAAACAUGAGGAUCACCCAUGUGAGGAUAUGAAAAAGAAAAGAAAAGAAAGAAGAAUCAGAAGGCACAAAGU [salish99-ex1_r3_088] (puzzle: Exclusion 1)
apparent KD of MS2 coat protein [3]: 31.8 nM | apparent KD of MS2 coat protein [2]: 29.7 nM | apparent KD of MS2 coat protein [4]: 32.9 nM

UAGAUGUGAGGAUAUGGUAAAGAUAGAAUGAUGAAAGAACUCCAGAAGGCACAUGAGGAUCACCCAUGUAGAUG [Mat - Exclusion 4 - Mod of JL - D29] (puzzle: Exclusion 4)
apparent KD of MS2 coat protein [2]: 22.3 nM

CUUUUGUGAGGAUAUUAGUAGUAAAUAAAUAAAAUUACUACUGAGAAGGCACAUGAGGAUCACCCAUGUUUCUC [salish99_ex4_r3_065] (puzzle: Exclusion 4)
apparent KD of MS2 coat protein [2]: 31.9 nM

UUCACAUGGACAUGAGAUCACAUGAGGAUCACCCAUGUGAAUAACAAGCUUUUUGCUCGUCUUAUGUCCAAUAAUAG [Stov1/14-C2] (Eterna round: R97, puzzle: Sensor, turn-off variant 1)
apparent KD of MS2 coat protein (input ligand: FMN 200 uM): 13.7 nM | apparent KD of MS2 coat protein (input ligand: none): 12.6 nM

UCCUCACAUGAGGAUCACCCAUGUCAGGAUAUGUACCCGAUCAAGUCAGAGAUCGGAAGCAGAAGGGACUGCGG [Larebeti] (puzzle: Exclusion 1)
apparent KD of MS2 coat protein [3]: 26.5 nM | apparent KD of MS2 coat protein [2]: 70.7 nM | apparent KD of MS2 coat protein [4]: 59.2 nM

UUUAAUUUAAUUAAGAUCACAUGAGGAUCACCCAUGUAUAUAUAGGAUAUCAGCUCGAAUAGAGCUGAGAAGGAUAUAUACAUA [ExNG3/4-A4] (Eterna round: R96, puzzle: Exclusion NG 3)
apparent KD of MS2 coat protein [1]: 39.4 nM

AUUGAUGUUGAGGAUAUGCUUUUAUUUAUAAUAGCAGAAGGCGAUACAUGAGGAUCACCCAUGUUCAUGGUUUU [JR_E6_Sub096] (puzzle: Exclusion 6)
apparent KD of MS2 coat protein [2]: 24.5 nM

GCAUCUCGCAAGGGUACCCACAUGAGGAUCACCCAUGUGAUGAUAAACAGGUUUCGUGCGUCCGUUUUAUCCACUUU [Eternabot (L2) Solution 18] (Eterna round: R97, puzzle: Sensor, turn-off variant 1)
apparent KD of MS2 coat protein (input ligand: FMN 200 uM): 737 nM | apparent KD of MS2 coat protein (input ligand: none): 865 nM
